From US20100129869

What was measured:
Experiment in all cases: cell_activity
[1] = system: ZFN 8365 (engineered); settings: pair with ZFN 8361; CHO cells, Surveyor
[2] = system: ZFN 7844 (engineered); settings: pair with ZFN 9461; CHO-S GS-/- B3, Surveyor
[3] = system: ZFN 9075 (engineered); settings: pair with ZFN 9372
[4] = system: ZFN 12172 (engineered); settings: pair with ZFN 12176; CHO clone 1F1.6, Surveyor
[5] = system: ZFN 9477 (engineered); settings: pair with ZFN 9476; CHO-S GS-/- B3, Surveyor
[6] = system: ZFN 8361 (engineered); settings: pair with ZFN 8365; CHO cells, Surveyor
[7] = system: ZFN 9461 (engineered); settings: pair with ZFN 7844; CHO-S GS-/- B3, Surveyor
[8] = system: ZFN 9372 (engineered); settings: pair with ZFN 9075
[9] = system: ZFN 9476 (engineered); settings: pair with ZFN 9477; CHO-S GS-/- B3, Surveyor
[10] = system: ZFN 12176 (engineered); settings: pair with ZFN 12172; CHO clone 1F1.6, Surveyor
[11] = wt FokI, CHO-K1, Surveyor, 24% with obligate heterodimer FokI, 25% in CHO-S
[12] = HEK293, CEL-I, also active in K562

“TATACATGGCTTGGACTTTCTCACCCTG (double strand) [CHO GS exon 2 ZFN 8365 half-site]” was tested, and the activity (% modified chromosomes) [1] was 7.
In the case of “CCAATGCTCAGGTACT (double strand) [CHO DHFR exon 1 ZFN 7844 half-site]”, the activity (% modified alleles) [2] was 15.
“GAATGGTGCAGGCTGC (double strand) [CHO GS exon 6 ZFN 9075 half-site]” was tested, and the activity (% modified chromosomes) [3, 11] was 26.
“AAGGAGGCAAAGACAAAG (double strand) [CHO FUT8 exon 10 ZFN 12172 half-site]” was tested, and the activity (% modified alleles) [4] was 7.5.
“AGTCCGGGGGGTGGTG (double strand) [CHO DHFR intron 1 ZFN 9477 half-site]” gave an activity (% modified alleles) [5] of 18.
For “CTGGGTTGATGGTACTGGAGAAGGACTG (double strand) [CHO GS exon 2 ZFN 8361 half-site]”, the activity (% modified chromosomes) [6] was 7.
Substance “AGGGAAGGTCTCCGTT (double strand) [CHO DHFR exon 1 ZFN 9461 half-site]” has an activity (% modified alleles) [7] of 15.
Work on human GS exon 6 target yielded an activity [3, 12] of 21 % NHEJ and an activity [8, 12] of 21 % NHEJ.
“GTTCCCAGGAATGGGCTTGGGG (double strand) [CHO GS exon 6 ZFN 9372 half-site]” showed an activity (% modified chromosomes) [8, 11] of 26.
Work on “CATGGGTAGCCGCTGA (double strand) [CHO DHFR intron 1 ZFN 9476 half-site]” yielded an activity (% modified alleles) [9] of 18.
For “AAGAAGGGTCATCAG (double strand) [CHO FUT8 exon 10 ZFN 12176 half-site]”, the activity (% modified alleles) [10] was 7.5.
